Experimental data reported in US20050037969A1 (ARBOR VITA, published 2005).
Ends that are not written are not given here. * marks the point of attachment. Biotin = O=C1N[C@H]2[C@H](CS[C@H]2CCCCC(=O)*)N1

T1: TAX-IP2L PDZ-GST fusion protein (Homo sapiens (Human), UniProt Q8TF64 107-197)
T1 construct: Order of GST and PDZ part and limits not seen in the excerpts
T1 sequence: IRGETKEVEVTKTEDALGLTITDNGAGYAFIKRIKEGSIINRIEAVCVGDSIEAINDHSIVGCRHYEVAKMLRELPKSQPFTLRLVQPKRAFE

T2: GST-TAX-IP43 PDZ domain fusion protein (human, UniProt Q13884 109-180)
T2 construct: also called TAX43; not shown: glutathione S-transferase encoded by vector pGEX-3X (Pharmacia)
T2 sequence: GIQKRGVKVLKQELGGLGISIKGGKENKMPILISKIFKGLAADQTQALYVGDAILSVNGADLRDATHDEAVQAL

T3: GEF PDZ-GST fusion protein (Homo sapiens (Human), UniProt Q8TEU7 293-400)
T3 construct: The label GEF is not explained in the excerpts
T3 sequence: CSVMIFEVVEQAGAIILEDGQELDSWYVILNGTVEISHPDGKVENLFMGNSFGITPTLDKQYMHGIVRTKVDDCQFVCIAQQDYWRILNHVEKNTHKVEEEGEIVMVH

T4: TAX-IP33 PDZ-GST fusion protein (Homo sapiens (Human), UniProt O14910 103-193)
T4 construct: Order of GST and PDZ part and limits not seen in the excerpts
T4 sequence: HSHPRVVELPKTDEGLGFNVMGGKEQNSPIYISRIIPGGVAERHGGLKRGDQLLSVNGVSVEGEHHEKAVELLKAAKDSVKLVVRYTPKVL

T5: GST-DVL1 PDZ domain fusion protein (human, UniProt O14640 247-339)
T5 construct: also called human dishevelled segment polarity protein homolog; not shown: glutathione S-transferase encoded by vector pGEX-3X (Pharmacia)
T5 sequence: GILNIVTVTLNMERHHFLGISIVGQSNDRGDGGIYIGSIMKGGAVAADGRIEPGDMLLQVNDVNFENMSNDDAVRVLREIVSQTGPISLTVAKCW

T6: GST-PTN-4 PDZ domain fusion protein (Homo sapiens (Human), UniProt P29074 517-605)
T6 construct: also called protein-tyrosine phosphatase meg1; not shown: glutathione S-transferase encoded by vector pGEX-3X (Pharmacia)
T6 sequence: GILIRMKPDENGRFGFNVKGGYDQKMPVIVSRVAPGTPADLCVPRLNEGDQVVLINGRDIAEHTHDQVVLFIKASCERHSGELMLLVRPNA

T7: GST-CASK PDZ domain fusion protein (Homo sapiens, UniProt O14936 486-575)
T7 construct: also called Homo sapiens CASK protein
T7 sequence: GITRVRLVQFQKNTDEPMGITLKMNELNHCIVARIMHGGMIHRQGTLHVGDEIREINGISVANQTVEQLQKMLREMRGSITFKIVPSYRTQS

T8: KIAA0807 (PDZ domain)-GST fusion protein (human, UniProt Q6P0Q8 1104-1192)
T8 construct: also called K807; KIAA807; not shown: glutathione S-transferase encoded by vector pGEX-3X (Pharmacia)
T8 sequence: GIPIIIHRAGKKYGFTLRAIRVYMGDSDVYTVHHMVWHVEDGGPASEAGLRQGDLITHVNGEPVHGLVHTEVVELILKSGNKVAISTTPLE

T9: SP short PDZ-GST fusion protein (Homo sapiens (Human), UniProt O43464 350-435)
T9 construct: The label SP short is not explained in the excerpts
T9 sequence: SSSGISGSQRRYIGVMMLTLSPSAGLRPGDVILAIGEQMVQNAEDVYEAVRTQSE

T10: GST-KIAA0303 PDZ domain fusion protein (Homo sapiens (Human), UniProt O15021 1138-1228)
T10 construct: also called K303; not shown: glutathione S-transferase encoded by vector pGEX-3X (Pharmacia)
T10 sequence: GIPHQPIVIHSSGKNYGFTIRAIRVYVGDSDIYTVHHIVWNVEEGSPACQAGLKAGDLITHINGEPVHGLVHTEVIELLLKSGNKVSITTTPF

T11: GST-DLG5 (p-dlg) PDZ domain fusion protein (Human, UniProt Q8TDM6 1343-1583)
T11 construct: also called Human discs large protein p-dlg; not shown: glutathione S-transferase encoded by vector pGEX-3X (Pharmacia)
T11 sequence: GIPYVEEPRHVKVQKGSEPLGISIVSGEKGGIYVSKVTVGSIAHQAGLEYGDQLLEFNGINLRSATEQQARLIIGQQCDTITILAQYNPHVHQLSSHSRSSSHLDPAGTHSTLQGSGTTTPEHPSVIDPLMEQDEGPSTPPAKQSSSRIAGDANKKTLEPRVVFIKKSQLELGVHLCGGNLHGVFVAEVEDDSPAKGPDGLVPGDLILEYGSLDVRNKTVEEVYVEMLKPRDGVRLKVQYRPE

T12: GST-mouse syntenin fusion protein (Mus musculus, UniProt O08992 108-286)
T12 construct: also called Mus musculus Syntenin; not shown: glutathione S-transferase encoded by vector pGEX-3X (Pharmacia)
T12 chain: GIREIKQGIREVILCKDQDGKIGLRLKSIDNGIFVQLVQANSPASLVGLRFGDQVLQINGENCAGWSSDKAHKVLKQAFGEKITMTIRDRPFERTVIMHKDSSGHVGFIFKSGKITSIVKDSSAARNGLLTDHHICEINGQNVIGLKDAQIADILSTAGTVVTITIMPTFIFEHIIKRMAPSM

T13: K559 PDZ-GST fusion protein (Homo sapiens (Human), UniProt Q9Y6V0 4489-4593)
T13 construct: Order of GST and PDZ part and limits not seen in the excerpts
T13 sequence: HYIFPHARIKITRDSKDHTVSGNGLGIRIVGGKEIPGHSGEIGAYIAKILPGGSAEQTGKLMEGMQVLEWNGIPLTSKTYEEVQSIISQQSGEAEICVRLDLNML

T14: MINT3 PDZ-GST fusion protein
T14 construct: Order of GST and PDZ part and limits not seen in the excerpts
T14 chain: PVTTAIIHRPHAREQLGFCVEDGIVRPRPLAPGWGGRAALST

B1: FceRIb C-terminal peptide AA25L, biotinylated (peptide)
peptide: Biotin-YSATYSELEDPGEMSPPIDL
notes: also called FceRlb; FcεRβI
B2: CD166 C-terminal peptide AA20L, biotinylated (peptide)
peptide: Biotin-DLGNMEENKKLEENNHKTEA
notes: also called CD166 (CD6L)
B3: CC CKR-1R C-terminal peptide AA41L (peptide)
peptide: Biotin-LERVSSTSPSTGEHELSAGF
notes: Only the last four residues are seen in the excerpts
B4: CC CKR-2 C-terminal peptide AA42L (peptide)
peptide: Biotin-GKGKSIGRAPEASLQDKEGA
notes: as for B3

The binders below were run against T1, TAX-IP2L PDZ-GST fusion protein (assay: A/G assays).

Binding result, no binding:
B1
B2
B3
B4

These binders were tested against T2, GST-TAX-IP43 PDZ domain fusion protein (assay: A/G assays).

Binding result, no binding:
B1
B2
B3
B4

What follows are binders tested against T3, GEF PDZ-GST fusion protein (assay: A/G assays).

Binding result, no binding:
B1
B2
B3
B4

The binders below were run against T4, TAX-IP33 PDZ-GST fusion protein (assay: A/G assays).

Binding result, no binding:
B1
B2
B3
B4

The binders below were run against T5, GST-DVL1 PDZ domain fusion protein (assay: A/G assays).

Binding result, no binding:
B1
B2
B3
B4

These binders were tested against T15, PICK1 PDZ-GST fusion protein (Bos taurus (Bovine), UniProt Q2T9M1 17-105) (assay: A/G assays).
T15 construct: Order of GST and PDZ part and limits not seen in the excerpts
T15 sequence (Q2T9M1 other isoform, or with tags, fused parts or gaps limits assumed): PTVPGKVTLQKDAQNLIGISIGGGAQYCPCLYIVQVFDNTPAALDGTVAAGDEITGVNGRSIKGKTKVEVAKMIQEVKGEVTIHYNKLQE

Binding result, no binding:
B1
B2
B3
B4

These binders were tested against T6, GST-PTN-4 PDZ domain fusion protein (assay: A/G assays).

Binding result, no binding:
B1
B2
B3
B4

What follows are binders tested against T7, GST-CASK PDZ domain fusion protein (assay: A/G assays).

Binding result, no binding:
B1
B2
B3
B4

These binders were tested against T8, KIAA0807 (PDZ domain)-GST fusion protein (assay: A/G assays).

Binding result, no binding:
B1
B2
B3
B4

These binders were tested against T16, K316 PDZ-GST fusion protein (Homo sapiens (Human), UniProt Q14CM0 72-159) (assay: A/G assays).
T16 construct: Order of GST and PDZ part and limits not seen in the excerpts
T16 sequence (Q14CM0 72-159 limits assumed): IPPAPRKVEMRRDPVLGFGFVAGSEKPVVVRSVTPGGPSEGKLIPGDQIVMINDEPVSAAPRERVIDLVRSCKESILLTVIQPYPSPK

Binding result, no binding:
B1
B2
B3
B4

Each binder was assayed against T9, SP short PDZ-GST fusion protein (assay: A/G assays).

Binding result, no binding:
B1
B2
B3
B4

The binders below were run against T17, NOS1 PDZ-GST fusion protein (Homo sapiens (Human), UniProt P29475 11-100) (assay: A/G assays).
T17 construct: Order of GST and PDZ part and limits not seen in the excerpts
T17 sequence (P29475 11-100 limits assumed): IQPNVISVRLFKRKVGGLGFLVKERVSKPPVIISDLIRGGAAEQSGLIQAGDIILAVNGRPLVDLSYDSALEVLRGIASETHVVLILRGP

Binding result, no binding:
B1
B2
B3
B4

These binders were tested against T10, GST-KIAA0303 PDZ domain fusion protein (assay: A/G assays).

Binding result, no binding:
B1
B2
B3
B4

The binders below were run against T11, GST-DLG5 (p-dlg) PDZ domain fusion … (assay: A/G assays).

Binding result, no binding:
B1
B2
B3
B4

Target: T12, GST-mouse syntenin fusion protein
Assay: A/G assays

Binding result, no binding:
B1
B2
B3
B4

The binders below were run against T13, K559 PDZ-GST fusion protein (assay: A/G assays).

Binding result, no binding:
B1
B2
B3
B4

Target: T14, MINT3 PDZ-GST fusion protein
Assay: A/G assays

Binding result, no binding:
B1
B2
B3
B4
